The data set is described as follows: yeast display, Sf9 membrane polyspecificity reagent, FACS + sequencing; frameworks hold sequencing errors. Summed up:
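Polyreactivity labels are assigned by the sorting gate from which each nanobody was recovered. The gates were low and high (top ~1%), set on anti-HA fluorescence for expression and streptavidin fluorescence for reagent binding. Before sorting, galactose-induced (36–48 hours) yeast display cells were stained for 1 hour at 4 °C with 10% biotinylated, detergent-solubilized Sf9 membrane reagent.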
“QVQLVESGGGLDQAGGSLRLSCAASGLTFYTYAMGWYRQAPGTERELVAAIRWRGGRTYYADSVKGRFTISRDNAKNTVYLQMNSLKPEDTAVYYCAADYSTLYKYDYWGQGTQVTVSS”: the “polyreactivity (PSR sort gate)” value is “low polyreactivity”.

Take “QVQLVESGGGLDQAGGSLRLSCAASGLTSLGNAMGWYRQAPGKERELVAAITRTGTSTYYADSVKGRFTISRDNAKNTVYLQMNSLKPEDTAVYYCNADGQSQYRYGSQYRYDYWGQGTQVTVSS”: the “polyreactivity (PSR sort gate)” value is recorded as “low polyreactivity”.

Take “QVQLVESGGGLDQAGGSLRLSCAASGNIFVEYAMGWYSQAPGKERELVAAITNSGGRTHYADSVKGRFTISRDNAKNTGSLQMNSRKPEDTAVFYCAAPTKYRSRRYYWGQGTQVSVSS”: the “polyreactivity (PSR sort gate)” value is reported as “high polyreactivity”.

Turning to “QVQLVESGGGLDQAGGSLRLSCAASGNTFFWPNAMGWYRQAPGKERELFAGISYRGASTYYADSVKGRFTISRDNAKNTVYLQMNSLKPEDTAVYYCAADNTPRGRRQNRDMYYWGQGTQVTVSS”, the “polyreactivity (PSR sort gate)” value was “high polyreactivity”.

On to “QVQLVESGGGLDQAGGSLRLSCAASGRIFNVYAMGWYRQAPGKERELVASITSAGSTYYADSVKGRFTISRDNAKNTVYIKMNSLKPEDTAVYYCAADCYSVYYSTYDSWGQGTQVTVSS”, for which the “polyreactivity (PSR sort gate)” value is “low polyreactivity”.

On to “QVQLVESGGGLDQAGGSLRLSCAASGRIFVFYTMAWYRQAPGKERDLVAAITKSGGSTYYADSVKGRFTISRDNAKNTVYFQMNSLKPEDTAVYYCATRDSPRTKNGYYYWGQGTQVTVSS”, for which the “polyreactivity (PSR sort gate)” value was “high polyreactivity”.

In the case of “QVQLVESGGGLDQAGGSLRLSCAASGRTFAYYTMGWYRQAPGKERELVAAITSSGGSTYYADSVKGRFTISRDNAKNTVYLQMKSLKPEDTAVYYCNAYGLRWASRLGYDYWGQGTQVTVSS”, the “polyreactivity (PSR sort gate)” value was “high polyreactivity”.

For the sequence “QVQLVESGGGLDQAGGSLRLSCAASGRTFGRNAMGWYRQAPGKESELVAASSTRGGSTFYADSVKARFTISRDNAKNTVYLQMNSLKPEDTAVYYCAAAGTARWPRPTSGLLDYYYWGQVTQVTVSS”, the “polyreactivity (PSR sort gate)” value is recorded as “high polyreactivity”.

“QVQLVESGGGLDQAGGSLRLSCAASGRTFIAYARGWYRQAPGKERELVAAITSSGGSTNYADSVKGRFTISRDNAKNTVYLQMNSLKPEDTAVYYSATDIYECPYFYYSYYYWGQGTQVTVSS”: the “polyreactivity (PSR sort gate)” value is on record as “low polyreactivity”.

With “QVQLVESGGGLDQAGGSLRLSCAASGRTFIGYAMGWYRQAPGKVRELVAAFNWSGARTYYADSVKGRFTISRDNAKNTVYLQMNSLKPEDTAVYYCAAVPVTSQTKYGYWGQGTQVTVSS”, the “polyreactivity (PSR sort gate)” value is “high polyreactivity”.

Regarding “QVQLVESGGGLDQAGGSLRLSCAASGRTFRHYAMGWYRQAPGKERELVASIRWNGASTNYADSVKGRFTISRDNAKNTVYLQMNSLKPEDTAVYYCAARFGSGFNYWGQGTQVTVSS”, the “polyreactivity (PSR sort gate)” value is recorded as “high polyreactivity”.

As to “QVQLVESGGGLDQAGGSLRLSCAASGRTFYYYAMGWYRQAPGIERELVAAISWSGGNTYYADSVKGRFTISRDNAKNTVYLQMNSLKPEDTAVYYCNRAYRTLTARTGRYDYWGQGTQVTVSS”, the “polyreactivity (PSR sort gate)” value is reported as “high polyreactivity”.

As for “QVQLVESGGGLDQAGGSLRLSCAASGRTINGNTMGCYRQAPGKQRELVAVIDWSGGSTYYADSVKGRFTISRDNAKNTVYLQMNSLKPEDTAVYYCNAETRDPILYGEYDYWGQGTQVTVSS”, the “polyreactivity (PSR sort gate)” value is reported as “low polyreactivity”.

Take “QVQLVESGGGLDQAGGSLRLSCAASGSIFASNAMGWYRQAPGKERELVAAINSGDSTNYADSVKGRFTISRDNAKNTVYLQMNSLKPEDTAVYYCARGLEERYDYWGQGTQVTVSS”: the “polyreactivity (PSR sort gate)” value is “low polyreactivity”.

In the case of “QVQLVESGGGLDQAGGSLRLSCAASGSIFDYYAMGWYRQAPGKERELVARISYSGGTTYYADSVKGRFTISRDNAKNTVYLQMNSLKPEDTAVYYCNARIPYSWRYGYWGQGTQVTVSS”, the “polyreactivity (PSR sort gate)” value is “high polyreactivity”.

Consider “QVQLVESGGGLDQAGGSLRLSCAASGSIFESYAMGWYRQAPGKERELVAAITKRGGSTYYADSVKGRFTISRDNAKNTVYLQMNRLKPEDTAVYYCNASWPGIGPIYDYWGQGTQVTVSS”, for which the “polyreactivity (PSR sort gate)” value is “low polyreactivity”.

For the sequence “QVQLVESGGGLDQAGGSLRLSCAASGSIFGSYTLGGYRQAPGKERELVAVINWSGDRTYYADSVKGRFTISRDNAKNTVYLQMNSLKPEDTAVYYCAARERAAYSRIRYNYWGQGTQVTVSS”, the “polyreactivity (PSR sort gate)” value is reported as “high polyreactivity”.

For the sequence “QVQLVESGGGLDQAGGSLRLSCAASGSIFNDNVMGWYRQAPWKERELVAGISRSGTRTYYADSVKGRFTISRDNAKNTVYLQMNSLKPEDTAVYYCAAAYGQARRYNGSQYGSWGQGTQVTVSS”, the “polyreactivity (PSR sort gate)” value was “high polyreactivity”.

Consider “QVQLVESGGGLDQAGGSLRLSCAASGSIFPPYAMGWYSQAPGKERELVATITIRGGSTYYADSVKGRFTISRDNAKNTVYLQMNSLKPEDTAVYYCAADYTKYYRRYYYWGQGTQVTVSS”, for which the “polyreactivity (PSR sort gate)” value is on record as “high polyreactivity”.

As for “QVQLVESGGGLDQAGGSLRLSCAASGSIFYAYAMGWYRQAPGKEREFVAVISRGGITNYADSVKGRFTISRDNAKNTVYLELNSLKPEDTAVYYCAAGTSAWGYLRRYGYWGQGSQVTVSS”, the “polyreactivity (PSR sort gate)” value is on record as “low polyreactivity”.

On to “QVQLVESGGGLDQAGGSLRLSCAASGSIFYDNTMAWYRQAAGKERDLVADISSGDSTYYADSVKGRFTISRDNAKNTVYLQMNSLKPEDTAVYYCNADVYSWVSVKEGDYWGQGTEVTVSS”, for which the “polyreactivity (PSR sort gate)” value was “low polyreactivity”.

For the sequence “QVQLVESGGGLDQAGGSLRLSCAASGSIFYFYTMGWYRQAPGKEREFVAAINGIGGSTYYADSVKGRFTISRDNAKNTVYLQMNRLKPEDTAVYYCAADAPWFKRNARKYNYWGQGTQVTVSS”, the “polyreactivity (PSR sort gate)” value is “low polyreactivity”.

Take “QVQLVESGGGLDQAGGSLRLSCAASGSIFYPYAMRWYRQAPGKERELVAAISSGGGTNYADSVKGRFTISRDNAKNTVYLQMNSLKPEDTEVYYCNARTGTTWQGYEYDYWGQGTQVTVSS”: the “polyreactivity (PSR sort gate)” value is recorded as “low polyreactivity”.

Consider “QVQLVESGGGLDQAGGSLRLSCAASGSILDSYTMGWYRQAPGKERELVPAITSDGGSTYYADSVKGRFTISRDNAKNTVYLQMNSLKPEDTAVYYCAKLSRYYGFWYTPDFDYWGQGTQVTVSS”, for which the “polyreactivity (PSR sort gate)” value is on record as “high polyreactivity”.

For the sequence “QVQLVESGGGLDQAGGSLRLSCAASGSILPYYAMGWYRQAPGKERELVATITDGTDTYYADSVKGRFTFSRDNAKNTVYLQMNSLKQEDTAVYYCDRKQYWGYDYWGQGTQVTVSS”, the “polyreactivity (PSR sort gate)” value is listed as “low polyreactivity”.

As for “QVQLVESGGGLDQAGGSLRLSCAASGSISQVYAMGWYRQATGKERELVAVINDADDTSYADSVKGRFTISRDNAKNTVYLQMNSLKPEDTAVYYCAAESSYFVALTQFYTVEFYYWGQGTQLTVSS”, the “polyreactivity (PSR sort gate)” value is reported as “low polyreactivity”.

Regarding “QVQLVESGGGLDQAGGSLRLSCAASGSTFANNAMGWYREAPGKERELVAAISSGGSTNYADSVKGRFTISRDNAKNTGYLQMNSLKPEDTAVYYCNADAYDEIKYGYWGQGTQVTVSS”, the “polyreactivity (PSR sort gate)” value is “low polyreactivity”.

With “QVQLVESGGGLDQAGGSLRLSCAASGSTFQAYARGWYRQAPGKERELVAAISRRSGSTYYADSVKGRFTISRDNAKNTVYLQMNSLKPEDTAVYYCNAGSRRPYDYWGQGTQVTVSS”, the “polyreactivity (PSR sort gate)” value is reported as “low polyreactivity”.

Take “QVQLVESGGGLDQAGGSLRLSCAASGSTFQPYAMGRYRQAPGKEREFVATISGSAGSTYYADSVKGRFKISRDNANYTVYLQMNSLKPEDTAVYYCNADSGWFGYDYWGQGNQVTVSS”: the “polyreactivity (PSR sort gate)” value was “low polyreactivity”.

In the case of “QVQLVESGGGLDQAGGSLRLSCAASGSTFRWYAMGWYRQAPGKERELVAAISSSGGSTYYADSVKGRFTISRDNAKNTVYLQMNSLKPEDTAVYYCAADFTGPFDYWGQGTQVTVSS”, the “polyreactivity (PSR sort gate)” value was “high polyreactivity”.

On to “QVQLVESGGGLDQAGGSLRLSCAASGSTFSFYAMGWYRQAPGKERELVAAISRSGGCKFYADYVKGRFSISRDNEKNTVYLQMNRLKPEDTAVYYCAAKSAVVVGMDSWGQGTQVTVSS”, for which the “polyreactivity (PSR sort gate)” value was “high polyreactivity”.

As to “QVQLVESGGGLDQAGGSLRLSCAASGSTFSYNAKGWYRQAPGKERELVAAITYRGSSTYYADSVKGRFTSSRDNAKNTVDLQMNSLKPEDTAVYYCAVSYVRYRGSGLTAFNYWGQGTQVTVSS”, the “polyreactivity (PSR sort gate)” value is listed as “high polyreactivity”.

On to “QVQLVESGGGLDQAGGSLRLSCAASGSTFVANAMGWYRQAPGKERELVAAITYRGGSTYYADSVKGRFTISRDNAKNSVYLQMNSLKPEDTAVYYCNTVYYVASASYYWRYDYWGQGTQVTVSS”, for which the “polyreactivity (PSR sort gate)” value is “high polyreactivity”.

As for “QVQLVESGGGLDQAGGSLRLSCAASGSTFVFYAMVWYIQAPGKEREFVAAITNSGSNTYYADSVKGRFTISRDNAKMTVNLQMNSLKPEDTAVYYCAARPFGRYRGRYYYWGQGTQVTVSS”, the “polyreactivity (PSR sort gate)” value is on record as “high polyreactivity”.

With “QVQLVESGGGLDQAGGSLRLSCAASGSTFVGYAMGWYRQAPGKERELVAAISGSGTSTYYADSVKGRFTISRDNAKNTVYLQMNSLKPEDTAVYYCNADPIFVYSSYNYWGQGTQVTVSS”, the “polyreactivity (PSR sort gate)” value is listed as “low polyreactivity”.

Regarding “QVQLVESGGGLDQAGGSLRLSCAASGSTFVLNAMGWYRQAPGKERDLVAAITSNGGRTYYADSVKGRFTISRDNAKNTVYLQMNSLKPEDTAVYYCNAVKTHRVRVHGWDYGYWGQGTQVTVSS”, the “polyreactivity (PSR sort gate)” value is given as “high polyreactivity”.

On to “QVQLVESGGGLDQAGGSLRLSCAASGSTFVSNAMGWYRQAPGKERELVAAISKSGGSTYYADSVKGRFTISRDNAKNTVYLQMNSLKPEDTAVYYCAKYNAKSFYGQYDYWGQGTQVTVSS”, for which the “polyreactivity (PSR sort gate)” value is listed as “high polyreactivity”.

For “QVQLVESGGGLDQAGGSLRLSCAASGSTFYKYAMGWYRQAPGNERDLVAGISSSGGNTYYADSVKGRFTISRDNAKNTDYLQMNSLKPEDTAVYYCAARPRYLKEYDYWGQGTQVSVSS”, the “polyreactivity (PSR sort gate)” value is on record as “high polyreactivity”.

Take “QVQLVESGGGLDQAGGSLRLSCAASGSTIHYYAMGWYRQAPRKERELVAVISSGGSTYYADSVKGRFTISRDNAKNTVYLQMNSLNPEDTAVYYCAKDYRDYNRGWYDYWGQGTQVTVSS”: the “polyreactivity (PSR sort gate)” value is on record as “low polyreactivity”.

Take “QVQLVESGGGLDQAGGSLRLSCAASGSTSPYYTMGWYRQAPGKERELVASINESGGSTYYADSVKGRFTISRDNAKNTVYLLMNSLKPEDTAVYYCNAEYTTPSYPVYRIDYYWFDYWGQGTQVTVSS”: the “polyreactivity (PSR sort gate)” value is recorded as “low polyreactivity”.

The values above are taken from the nanobody polyreactivity screen of Harvey et al. (2022).
